{"source": "patent US5719039A", "about": "“Enzyme-surfactant ion-pair complex catalyzed reactions in organic solvents” (University of Iowa Research Foundation, priority 1995, dated 1998)", "key": {"CT": {"target": "CT (Bos taurus, UniProt P00766)", "assay": "Transesterification with CT pre-inactivated by PMSF", "format": "biochemical", "settings": "PMSF 0.3 mM", "procedure": "Values for kcat /Km were determined by nonlinear fit of the kinetic data and represent averages of triplicate measurements with standard deviations in each case of less than 5%. Initial rates of formation of N-acetyl-L-phenylalanine propyl ester were determined by gas chromatography (530-μm fused silica gum (Hewlett-Packard)). […] Saturation kinetics could not be determined for reactions with CT suspended in isooctane as the solubility limit for the substrate in this solvent is substantially below the Km of the enzyme."}, "[1]": {"settings": "source not stated; cited from earlier work"}, "[2]": {"assay": "Extraction of enzyme from aqueous solution into isooctane containing 2 mM AOT", "format": "physicochemical"}, "[3]": {"settings": "source not stated; cited from earlier work", "remark": "listed apart in the source"}, "[4]": {"settings": "1 mg/ml aqueous enzyme, pH 7.8, 2 mM CaCl2, 2 mM AOT in isooctane"}}}
{"molecule": "O=S(=O)(F)Cc1ccccc1", "note": "[phenylmethanesulfonyl fluoride]", "values": [{"measurement": "reaction with pre-inactivated CT", "setting": "CT", "result": "No reaction was observed"}]}
{"molecule": "Subtilisin BPN': subtilisin BPN' (from Bacillus amyloliquefaciens) (protein, UniProt P00782 108-382, looked up) Subtilisin BPN': AQSVPYGVSQIKAPALHSQGYTGSNVKVAVIDSGIDSSHPDLKVAGGASMVPSETNPFQDNNSHGTHVAGTVAALNNSIGVLGVAPSASLYAVKVLGADGSGQYSWIINGIEWAIANNMDVINMSLGGPSGSAALKAAVDKAVASGVVVVAAAGNEGTSGSSSTVGYPGKYPSVIAVGAVDSSNQRASFSSVGPELDVMAPGVSIQSTLPGNKYGAYNGTSMASPHVAGAAALILSKHPNWTNTQVRSSLENTTTKLGDSFYYGKGLINVQAAAQ", "values": [{"measurement": "pI", "setting": "[1]", "result": 9.4}, {"measurement": "Extraction Yield (enzyme in organic phase)", "setting": "[2]; [4]", "result": 0.4, "unit": "mg/mL"}, {"measurement": "extraction", "setting": "[2]; 1 mg/ml aqueous solution, pH 7.8, 2 mM AOT in isooctane", "result": 40, "unit": "%"}, {"measurement": "pH of maximal activity", "setting": "[3]", "result": 7.8}]}
{"molecule": "subtilisin Carlsberg: subtilisin Carlsberg (from Bacillus licheniformis) (protein, UniProt P00780 106-379, looked up) Subtilisin Carlsberg: AQTVPYGIPLIKADKVQAQGFKGANVKVAVLDTGIQASHPDLNVVGGASFVAGEAYNTDGNGHGTHVAGTVAALDNTTGVLGVAPSVSLYAVKVLNSSGSGSYSGIVSGIEWATTNGMDVINMSLGGASGSTAMKQAVDNAYAKGVVVVAAAGNSGSSGNTNTIGYPAKYDSVIAVGAVDSNSNRASFSSVGAELEVMAPGAGVYSTYPTNTYATLNGTSMASPHVAGAAALILSKHPNLSASQVRNRLSSTATYLGSSFYYGKGLINVEAAAQ", "values": [{"measurement": "pI", "setting": "[1]", "result": 8.5}, {"measurement": "Extraction Yield (enzyme in organic phase)", "setting": "[2]; [4]", "result": 0.3, "unit": "mg/mL"}, {"measurement": "pH of maximal activity", "setting": "[3]", "result": "~7.8"}]}
{"molecule": "papain: papain, pI of about 8.75 and maximal activity at pH 7.8 (protein, UniProt P00784 134-345, looked up) Papain: IPEYVDWRQKGAVTPVKNQGSCGSCWAFSAVVTIEGIIKIRTGNLNEYSEQELLDCDRRSYGCNGGYPWSALQLVAQYGIHYRNTYPYEGVQRYCRSREKGPYAAKTDGVRQVQPYNEGALLYSIANQPVSVVLEAAGKDFQLYRGGIFVGPCGNKVDHAVAAVGYGPNYILIKNSWGTGWGENGYIRIKRGTGNSYGVCGLYTSSFYPVKN", "values": [{"measurement": "pI", "setting": "[1]", "result": "about 8.75"}, {"measurement": "Extraction Yield (enzyme in organic phase)", "setting": "[2]; 0.5 mg/ml aqueous papain, pH 7.8, CaCl2, MnCl2, KCl, 2 mM AOT in isooctane", "result": 0.35, "unit": "mg/mL"}, {"measurement": "pH of maximal activity", "setting": "[3]", "result": 7.8}]}
